Source: article PMC6358717 (Proceedings of the National Academy of Sciences of the …, 2018)
Several values for one entry are separate records, joined by “and”; a condition that tells them apart may be missing. Equal values may be shown once.

What was measured:
[1] = biological target: human GPIHBP1 coated on ELISA wells (human) (UniProt Q8IV16); assay: ELISA
[2] = biological target: the molecule itself; assay: crystal structure

human GPIHBP1 coated on ELISA wells (human), sequence (Q8IV16 21-151): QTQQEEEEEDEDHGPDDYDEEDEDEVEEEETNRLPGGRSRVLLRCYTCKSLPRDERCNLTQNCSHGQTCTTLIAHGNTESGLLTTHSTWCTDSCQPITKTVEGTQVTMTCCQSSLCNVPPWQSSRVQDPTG

percent reduction of binding against LPL-wt [1]	Molecule	binding result [2]
79% and 85%	FLAG-tagged human LPL-M404R (from UniProt P06858 28-475) (enzyme)	–
–	human lipoprotein lipase harboring an R324A mutation (enzyme, UniProt P06858 28-475, looked up, N-linked glycans at N70 and N386) ADQRRDFIDIESKFALRTPEDTAEDTCHLIPGVAESVATCHFNHSSKTFMVIHGWTVTGMYESWVPKLVAALYKREPDSNVIVVDWLSRAQEHYPVSAGYTKLVGQDVARFINWMEEEFNYPLDNVHLLGYSLGAHAAGIAGSLTNKKVNRITGLDPAGPNFEYAEAPSRLSPDDADFVDVLHTFTRGSPGRSIGIQKPVGHVDIYPNGGTFQPGCNIGEAIRVIAERGLGDVDQLVKCSHERSIHLFIDSLLNEENPSKAYRCSSKEAFEKGLCLSCRKNRCNNLGYEINKVRAKASSKMYLKTRSQMPYKVFHYQVKIHFSGTESETHTNQAFEISLYGTVAESENIPFTLPEVSTNKTYSFLIYTEVDIGELLMLKLKWKSDSYFSWSDWWSSPGFAIQKIRVKAGETQKKVIFCSREKVSHLQKGKAPAVFVKCHDKSLNKKSG	binds
